For the assay, the target named is Tau-biotin monomer (human, UniProt P10636-8 1-441, biotin (Sulfo-NHS-LC-Biotin)).

A value given as a limit tells only on which side of the number the result lay.

B1: Lag3 (lymphocyte-activation gene 3), on transfected SH-SY5Y cells (receptor)
chain: GPGKELPVVWAQEGAPVHLPCSLKSPNLDPNFLRRGGVIWQHQPDSGQPTPIPALDLHQGMPSPRQPAPGRYTVLSVAPGGLRSGRQPLHPHVQLEERGLQRGDFSLWLRPALRTDAGEYHATVRLPNRALSCSLRLRVGQASMIASPSGVLKLSDWVLLNCSFSRPDRPVSVHWFQGQNRVPVYNSPRHFLAETFLLLPQVSPLDSGTWGCVLTYRDGFNVSITYNLKVLGLEPVAPLTVYAAEGSRVELPCHLPPGVGTPSLLIAKWTPPGGGPELPVAGKSGNFTLHLEAVGLAQAGTYTCSIHLQGQQLNATVTLAVITVTPKSFGLPGSRGKLLCEVTPASGKERFVWRPLNNLSRSCPGPVLEIQEARLLAERWQCQLYEGQRLLGATVYAAESSSGAHSARRISGDLKGGHLVLVLILGALSLFLLVAGAFGFHWWRKQLLLRRFSALEHGIQPFPAQRKIEELERELETEMGQEPEPEPEPQLEPEPRQL
One may read the Kd as the free concentration of one partner at which half of the binding sites on the other are occupied at equilibrium, for simple one-to-one binding. High values mean weaker binding, low ones tighter binding. For the molecule B1, the Kd is greater than 2000 nM.

Values taken from article PMC11040377 (2024).
